Data from the NTF2 design screens of Basanta et al. (2020).

Test: protease stability score; higher = more stable; yeast display proteolysis, trypsin and chymotrypsin;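 note: log10 excess protease needed over predicted unfolded state with 0 meaning unfolded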

Question: For “DKSAQDLFRKLLEALDTGDEKTAEENMDPNAHARVGDKEVHGMDEYAKHRATENRRMKIRWNSVNLRVHNGQLNVDVDVEVTENGRPSRSRARVVMRMKNGRIKRLEVNEHK”, which protease stability score is on record?
Answer: -0.118

Question: For “DKSMQEEMERVARENDFHRLAELADPNVKWQYGDKHLHGRTAQREFVRLNHEAVDHLEVQDVKFHGENVEIDLVMTVNGKEIKVVLQAHVHNGRIKEMRWQVTNEDEKRKLEEAVS”, which protease stability score is on record?
Answer: -0.183

Question: With “DKTAAHVVHQFLRNVDTGDPKKASDNADPNVTINVGDKEIRGRENLQKEIDKQKKDWRQTVRVTSFKDHNGKVHVDARYTADVNGKPIDDTFQFEMQAHNGKLKYVNVQLDEDKKKEQDS” as the sequence, how does the protease stability score read?
Answer: 0.032

Question: With “DKTHAETVRKLVERGNWEELARMADKDAHVNYGNKSVHGRERVESLLKRFSSRVDHVDLKDVDVQGDHVHMRYVAVFDGRRVDVSAVIFVDNGRIKSIHYRATDEEVKRRMDELLD” as the sequence, how does the protease stability score read?
Answer: 1.33

Question: With “DNDAMRQANTLVEILNTGDPDRFVEYVDPNVDIKIGDKSIHGREDARRWVTELKRQMHIHLSVKRVDVEGEHLNLHADQVNDENGQPDKDHVLIIMRFHNGRVKVLKQEHKS” as the sequence, how does the protease stability score read?
Answer: 0.53

Question: Which protease stability score does the source give for “DNDAREAARRLLDAWRTGDEDTVRDMADENAKVTVGDKTIQGRDHLVDWIHQHYHEQRVDVKSVHMDAQGDKVDVKLDAVSDRNGQPRRYVEHVKITMKNGKMKSLEMHREG” here?
Answer: 0.753

Question: For “DNDHWRKIATDMIKALQEGDRQKVKKLVDKDAKARIGDRDVHGREHIVTLLYEMQQRIDHMQLVDVKVRGEEVVVRYHAKFNGKVVDVSITLHFRNGKVKEMRVDPRAVESLKK”, which protease stability score is on record?
Answer: 1.22

Question: For “DNDKLAKDAVDTMDEVLQDGDEKKLNDLFDPNARLRVGDHEIHGREQIHDWIKTRLNQIDHIEMRIVHVRREGEKALARVTFVNQHNGKQDEREAVYRFTVENGRATFEEVNIK”, which protease stability score is on record?
Answer: -0.116

Question: Which protease stability score does the source give for “DNDRVRKAHKLMRVIETGDPDKVNEYVDPNVHVEYGDKTIHGREELKKFIEKERHEMRVELKRVSADATGNKVDIKVHRVLDKNGKPETNNVRIIIVWDGNKIKSVSFQKDK” here?
Answer: 0.849

Question: Which protease stability score does the source give for “DNDTQHRLAERFNHAVETGDPDKIMKLVPEDVRFTVGDKEYHGRESLSKVIKDFRDHADRVKVESVRVNNGRIDVQMRYNRNGQDRVMTFLLTVHNGKIENVNIQSG” here?
Answer: 1.58

Question: With “DNEAARSARRNLKQIERGNEHKVREMADKNAHVRVGDKDLHGREDISTWVKKLKEEMRVRFDLRRVNDKGSTVDLDVTLEMTVNGKPVTMKVTAKLSIHNGKIQSLIWNISDEQKEQRKG” as the sequence, how does the protease stability score read?
Answer: 0.336

Question: With “DNEDAKRVVKLAEHNDFKKWAENADKDVRMKVGDKTWHGRSQFSTAVERLQKNIDHVDLRSVKTHNGRVTIKEQQEVDGRKTDVRFRLQVHNGHIKRVEVQVTDEEDKKTMEKLLS” as the sequence, how does the protease stability score read?
Answer: -0.23

Question: Which protease stability score does the source give for “DNEDAQQAIQMLKAELDGDEERAAQLMDPNARFNIGDKEIHGRETFQHWLREVKKHMHVKIDRLEIDVEGDKVDVRMEFVQNHNGKPHRAEATVEVRAENGHVKEVTVDVKG” here?
Answer: 0.551

Question: For “DNEEEAKKFVEELKRQYDEGNEHQIANQAPENATARVGDKNYHGRENVETYLRQIVRRADTVEIRIRSVEVHGDNVVVDFHYVLEYNGTRRNVRMKLVLDDVNGRKVALVIVQS”, which protease stability score is on record?
Answer: 0.572

Question: For “DNEEHKVLEELIRAIQEGNEKDIKRLIDPNARVNVGDKTYHGREQIVKWWFDLQQELEFEIDIKRWHVNNGQIRADIKYVRNNNGKPESFRADMQVTASNGKFKSVSVHETK”, which protease stability score is on record?
Answer: 1.43

Question: For “DNEFREEVKKAIDTGDPLEMVRQADKDVEVHVGDKYWHGREQVEKLMTLWKEQVDHLHVDRITHEPGRVKVDAVAQFNGVEFRFNMVIHAHNGKIKSVQFKNTDEDVKKKLEKILD”, which protease stability score is on record?
Answer: -0.288

Question: For “DNEKALERAEEAARAVARGNEDELRKLAPPDVSAQYGDHRINGMDQVVEQIKEMRRAVDHIKIQTIRKNGNSVTLTVELTYNGQQMHMHVEVEVHNGELKHVRMHVTDEERWRRQES”, which protease stability score is on record?
Answer: 0.855

Question: With “DNEKVARNAADKLMTAINTGDPDQFVKLFDENAHVDVGDKTWRGRDKLKEWARKIVEQVDHLRARVTHMDVDGDKASVVFVVTLNKNGKEHSEQHEATAEVSGEQAVFKSLRHK” as the sequence, how does the protease stability score read?
Answer: 1.38

Question: With “DNENVNHVKTWFQNIQENNPDELIKLIDKDARLRVGDKEFHGREQAKKEIEKRIRHIELEFKHVQVDHHNGRVVAHAVYTQNRNGRPKKVNVRYVFQIHNGKIKRAEQDEDG” as the sequence, how does the protease stability score read?
Answer: 0.263

Question: For “DNETVDEALKAFNKNDERNMMRLADENAEMEIGDTEYHGQEQVQTLLQKLNQQVDHREFHSIETEPNRIRVDYRAVFNGRDIRVHVHLEFENGRLTRVRFDVRDPRQQKHLQDLLK”, which protease stability score is on record?
Answer: 0.344

Question: For “DNEVAHNIMRAFKQQWRGNEDKALELMDPNAEVHVGNKQIHGMEEWVRRTAHKARRARVKVSRIDVTVHNGKVRIKMNYTVSVNGKPISWHADITVQADNGRAKHITQQVPEDLEERERG”, which protease stability score is on record?
Answer: 0.112

Question: For “DNKDQARRLLNELRKAMKQNDEDRMRQLMDPNARATYGDKTVHGREELAERIIKEVKRADHVDLQVDDIKTQGNKLTVEVTIRIDVNGKTINTRYVLYAEVSNGRFNIRQIHQQ”, which protease stability score is on record?
Answer: 0.544

Question: Which protease stability score does the source give for “DNKERAEDWFRHMTEIWKQNDPDELQNNADPNVRVDVGDKQVQGRDKYKTQMETFKNRADHISIELKNIDVQGERIVVNFEATYDVNGRKEDKTAHILARVHNGHIVIKEVKNG” here?
Answer: -0.073

Question: For “DNQDARKLQEYFRNMVTGNEQRAMQYMDKDVTVHVGDKVFHGMERAVKTLVQRLKEIRVHYKFKQVSVQGNKVNIKADVEEDDNGRPETKRLEMDVEWHNGKVKKVVIKNDR”, which protease stability score is on record?
Answer: 1.49

Question: With “DNRLQRWADRWLEVVETGNPEEIRKLVDKDVDVEIGDQQYKGQDHLSKQWKDFHKHAKLEIKDYKIDVEGDRLVINVDAVYNVNGQPRRNRYNLEFKLHNGKVRSVHFRIDPDEQRKMDS” as the sequence, how does the protease stability score read?
Answer: 1.44
